Assay results published in patent publication US20260374820 (published 2026).
Bridges are numbered along the chain shown (N, C = ends). Where no end group is shown, it is not given here.

B1: MuSK7-pal (peptide)
chain 1: YPSYHTNVVASLKRC
chain 2: YPSYHTNVVASLKRC
modifications: macrocyclic homodimer with palmitoyl group
B2: MuSK1 (peptide)
chain: YLPEFSWPESFVLFLRQRQRQLGRGAE
modifications: not fully specified (bridges); also: thioether macrocycle stated, places not given here
B3: MuSK1Ac Term PEG11 dimer (protein)
chain 1: YLPEFSWPESFVLFLRQRQRQLGRGAE
chain 2: YLPEFSWPESFVLFLRQRQRQLGRGAE
modifications: also: homodimer via terminal PEG11 linker, terminus not given here, name suffix Ac, meaning not given here
B4: MuSK1Ac PEG11 dimer (protein)
chain 1: YLPEFSWPESFVLFLRQRQRQLGRGAE
chain 2: YLPEFSWPESFVLFLRQRQRQLGRGAE
modifications: also: homodimer via PEG11 linker, attachment not given here, name suffix Ac, meaning not given here
B5: MuSK9 PEG11 dimer (peptide)
chain 1: YWYLQPGYVNIVTSYHC
chain 2: YWYLQPGYVNIVTSYHC
modifications: not fully specified (N-terminus, C-terminus, bridges); cysteine pairing not given here; also: homodimer via Bis-Mal-dPEG11 linker, attachment not given here
B6: MuSK4 PEG11 dimer (peptide)
chain 1: YFPTNVVSLLKSC
chain 2: YFPTNVVSLLKSC
modifications: not fully specified (N-terminus, C-terminus, bridges); cysteine pairing not given here; also: homodimer via Bis-Mal-dPEG11 linker, attachment not given here
B7: MuSK7 PEG11 dimer (peptide)
chain 1: YPSYHTNVVASLKRC
chain 2: YPSYHTNVVASLKRC
modifications: not fully specified (N-terminus, C-terminus, bridges); cysteine pairing not given here; also: homodimer via Bis-Mal-dPEG11 linker, attachment not given here
B8: MuSK1Ac Term PEG3 dimer (protein)
chain 1: YLPEFSWPESFVLFLRQRQRQLGRGAE
chain 2: YLPEFSWPESFVLFLRQRQRQLGRGAE
modifications: also: homodimer via terminal PEG3 linker, terminus not given here, name suffix Ac, meaning not given here
B9: MuSK4 PEG3 dimer (peptide)
chain 1: YFPTNVVSLLKSC
chain 2: YFPTNVVSLLKSC
modifications: not fully specified (N-terminus, C-terminus, bridges); cysteine pairing not given here; also: homodimer via PEG3 linker, attachment not given here
B10: MuSK9 PEG3 dimer (peptide)
chain 1: YWYLQPGYVNIVTSYHC
chain 2: YWYLQPGYVNIVTSYHC
modifications: not fully specified (N-terminus, C-terminus, bridges); cysteine pairing not given here; also: homodimer via PEG3 linker, attachment not given here
B11: MuSK7 PEG3 dimer (peptide)
chain 1: YPSYHTNVVASLKRC
chain 2: YPSYHTNVVASLKRC
modifications: not fully specified (N-terminus, C-terminus, bridges); cysteine pairing not given here; also: homodimer via PEG3 linker, attachment not given here
B12: MuSK1Ac PEG3 dimer (protein)
chain 1: YLPEFSWPESFVLFLRQRQRQLGRGAE
chain 2: YLPEFSWPESFVLFLRQRQRQLGRGAE
modifications: also: homodimer via PEG3 linker, attachment not given here, name suffix Ac, meaning not given here

Target: T1, human MuSK (human, UniProt O15146)
T1 chain: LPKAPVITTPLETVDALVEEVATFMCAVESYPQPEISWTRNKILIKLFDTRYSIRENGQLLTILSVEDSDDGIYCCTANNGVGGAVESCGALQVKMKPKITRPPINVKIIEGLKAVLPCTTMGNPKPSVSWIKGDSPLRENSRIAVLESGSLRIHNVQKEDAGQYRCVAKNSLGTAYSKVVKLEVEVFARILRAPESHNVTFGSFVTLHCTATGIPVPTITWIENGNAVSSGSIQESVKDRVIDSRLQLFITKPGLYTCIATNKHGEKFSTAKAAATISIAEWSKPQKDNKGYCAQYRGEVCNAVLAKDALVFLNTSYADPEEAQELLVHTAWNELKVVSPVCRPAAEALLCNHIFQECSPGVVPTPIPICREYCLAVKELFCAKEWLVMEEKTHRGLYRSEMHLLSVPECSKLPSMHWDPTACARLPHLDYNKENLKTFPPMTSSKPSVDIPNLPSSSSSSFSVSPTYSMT
Test: SPR

**Q.** How did the Kd turn out when B1 was run?
**A.** The Kd was 0.9 nM.

Target: T1, human MuSK
Test: SPR
Remark: another data set of the same source

**Q.** How did the Kd turn out when YLPEFSWPESFVLFLRQRQRQLGRGAE (also: name suffix Ac, meaning not given here) [MuSK1Ac] was run?
**A.** The Kd was 1.6 nM.

**Q.** For {CH2CO}-YFPTNVVSLLKSC (thioether N-13 (inferred); not fully specified (C-terminus)) [MuSK4], which Kd is on record?
**A.** Its Kd is 250 nM.

**Q.** Which Kd does the source give for B2 here?
**A.** Its Kd is 2.2 nM.

**Q.** Which Kd does the source give for {CH2CO}-YPSYHTNVVASLKRC (thioether N-15 (inferred); not fully specified (C-terminus)) [MuSK7] here?
**A.** Its Kd is 160 nM.

Target: T2, mouse MuSK (mouse, UniProt Q61006)
T2 chain: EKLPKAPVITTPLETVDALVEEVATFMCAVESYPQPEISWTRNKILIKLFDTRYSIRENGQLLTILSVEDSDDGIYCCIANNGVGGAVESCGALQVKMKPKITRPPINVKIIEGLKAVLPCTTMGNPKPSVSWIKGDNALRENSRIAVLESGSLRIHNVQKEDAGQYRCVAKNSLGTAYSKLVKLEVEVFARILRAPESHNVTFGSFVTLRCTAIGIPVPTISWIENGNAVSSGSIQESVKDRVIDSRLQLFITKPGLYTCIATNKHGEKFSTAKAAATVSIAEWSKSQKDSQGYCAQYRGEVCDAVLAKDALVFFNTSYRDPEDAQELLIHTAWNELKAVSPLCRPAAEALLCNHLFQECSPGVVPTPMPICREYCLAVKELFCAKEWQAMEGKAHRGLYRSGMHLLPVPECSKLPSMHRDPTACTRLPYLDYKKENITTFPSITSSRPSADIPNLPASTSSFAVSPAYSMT
Test: SPR

**Q.** Which Kd does the source give for B1 here?
**A.** Its Kd is 8.8 nM.

Target: T1, human MuSK
Test: SPR
Remark: another data set of the same source

**Q.** For B3, which Kd is on record?
**A.** The Kd was 3.6 nM.

**Q.** How did the Kd turn out when B4 was run?
**A.** The Kd was 1.5 nM.

**Q.** With B5 as the binder, how does the Kd read?
**A.** The Kd was 3.9 nM.

**Q.** How did the Kd turn out when B6 was run?
**A.** The Kd was 6.9 nM.

**Q.** For B7, which Kd is on record?
**A.** Its Kd is 1.3 nM.

**Q.** How did the Kd turn out when B8 was run?
**A.** The Kd was 6 nM.

**Q.** For B9, which Kd is on record?
**A.** The Kd was 6.8 nM.

**Q.** How did the Kd turn out when B10 was run?
**A.** Its Kd is 2.1 nM.

**Q.** How did the Kd turn out when B11 was run?
**A.** The Kd was 0.62 nM.

**Q.** With B12 as the binder, how does the Kd read?
**A.** The Kd was 4.4 nM.

Target: T3, rat MuSK (rat, UniProt Q62838)
T3 chain: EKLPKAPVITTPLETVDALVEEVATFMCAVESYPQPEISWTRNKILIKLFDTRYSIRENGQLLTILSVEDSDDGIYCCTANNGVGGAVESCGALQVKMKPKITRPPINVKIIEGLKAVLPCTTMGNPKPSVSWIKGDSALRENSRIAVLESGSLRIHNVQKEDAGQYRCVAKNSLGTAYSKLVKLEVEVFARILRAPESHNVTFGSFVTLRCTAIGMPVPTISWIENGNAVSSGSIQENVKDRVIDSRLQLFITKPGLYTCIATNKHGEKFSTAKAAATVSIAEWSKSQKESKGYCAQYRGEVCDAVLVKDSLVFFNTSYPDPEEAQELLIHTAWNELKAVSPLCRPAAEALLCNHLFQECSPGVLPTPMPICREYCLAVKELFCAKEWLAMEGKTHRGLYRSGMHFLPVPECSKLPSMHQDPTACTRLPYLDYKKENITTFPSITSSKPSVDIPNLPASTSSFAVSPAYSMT
Test: SPR

**Q.** How did the Kd turn out when B1 was run?
**A.** The Kd was 2 nM.
